This note sets out measurements from publication PMC12510318.

Common to all, as to test: EMSA
Holding throughout (conditions): EMSA: 6 ng 32P-satBaMV riboprobe, 2 U RNasin, 15 ul CAPS buffer (pH and salt not given), 20 min on ice; 4-12% NuPAGE in MES buffer at 4 C

Data set [1] concerns rFIB (NbFIB2) WT (Nicotiana benthamiana).
Data set [2] relates to rFIB D227A (Nicotiana benthamiana).
For data set [3], the system named is rFIB K134A (Nicotiana benthamiana).
The test system of data set [4] is rFIB K256A (Nicotiana benthamiana).
The test system of data set [5] is rFIB triple mutant (Nicotiana benthamiana).
In data set [6] the test system is rP20 WT (bamboo mosaic virus satellite RNA (satBaMV)).

What is called Kd is the constant that tells how readily two partners part at equilibrium.

As to satBaMV riboprobe, the Kd in data set [1] came to 50 nM; in data set [2] it was 350 nM; in data set [3], 140 nM; in data set [4], 350 nM; in data set [5], 1230 nM; in data set [6], 32 nM.
